Experimental findings from the RNAGym collection of RNA variant scans (doi:10.7554/elife.80360) are described below.

The chains are these.
B1: Twister Ribozyme (parent)
chain: AACACUGCCAAUGCCGGUCCCAAGCCCGGAUAAAAGUGGAGGGGGCGG

This series covers variants of B1. Briefly: self-cleavage, relative activity (ratio to wild type); higher = more cleavage; co-transcriptional.
A2G G39C: the self-cleavage is 0.0951.

In the case of C15A G43U, the self-cleavage worked out at 0.258.

In the case of G13C A33G, the self-cleavage is 0.676.

As for C3G C5U, the self-cleavage came out at 0.309.

Turning to A1C G13C, the self-cleavage was 0.116.

As to C14G G38A, the self-cleavage was 0.127.

Turning to C25A G42A, the self-cleavage amounted to 0.0675.

A1C G41A: the self-cleavage stood at 0.143.

Take C9A G13U: the self-cleavage stood at 0.927.

G36A G48C: the self-cleavage was 0.99.

Regarding C25A G47A, the self-cleavage stood at 0.102.

As for G16C A33C, the self-cleavage was 0.427.

For the variant C8U A33U, the self-cleavage turned out to be 0.531.

With A4U C14A, the self-cleavage was determined as 0.225.

As for A1U A40G, the self-cleavage is 0.074.

For C14G U18G, the self-cleavage stood at 0.0282.

Take G17C G47U: the self-cleavage was 0.0863.

U37G G44U: the self-cleavage amounted to 0.805.

Take A30G A35G: the self-cleavage was 0.869.

Turning to C8A G45A, the self-cleavage is 0.203.

Take C8A G45U: the self-cleavage was determined as 0.176.

In the case of U18C A35U, the self-cleavage was determined as 0.665.

Consider G13U G16C, for which the self-cleavage was 0.094.

With A10G G41U, the self-cleavage worked out at 0.781.

A10G G41C: the self-cleavage turned out to be 0.384.

A10G G41A: the self-cleavage stood at 0.748.

Take C27U G48U: the self-cleavage was determined as 0.942.

In the case of C27U G48A, the self-cleavage stood at 0.633.

As to C21G G45C, the self-cleavage stood at 0.0674.

G24A U37G: the self-cleavage was determined as 0.0506.

On to C21G U31C, for which the self-cleavage came out at 0.0753.

Take G16U G24C: the self-cleavage was determined as 0.118.

With A1G G38A, the self-cleavage worked out at 0.432.

As to A1C A33C, the self-cleavage stood at 0.169.

On to G13U G24U, for which the self-cleavage is 0.0911.

In the case of A2U A11U, the self-cleavage is 0.75.

Turning to G39A G44C, the self-cleavage turned out to be 0.231.

In the case of C21A A35C, the self-cleavage was 0.083.

Regarding C14G A40G, the self-cleavage amounted to 0.0712.

In the case of C9U A34C, the self-cleavage was found to be 0.131.

As for G16A G38A, the self-cleavage was 0.867.

Regarding U12A G29U, the self-cleavage amounted to 1.13.

As to U6G C46G, the self-cleavage stood at 0.406.

As to C27G U37C, the self-cleavage was found to be 0.102.

As for C25G A35G, the self-cleavage is 0.0857.

In the case of C9A G29C, the self-cleavage turned out to be 0.307.

Regarding C19U G39C, the self-cleavage is 0.0962.

As to U6C C19A, the self-cleavage is 0.104.

For the variant C5A G38A, the self-cleavage stood at 0.206.

In the case of A10U C20U, the self-cleavage worked out at 0.948.

As for A4U C21G, the self-cleavage is 0.0541.

As for G24C A30G, the self-cleavage is 0.096.

Regarding C19A A32C, the self-cleavage is 0.201.

As for G17C A35C, the self-cleavage was determined as 0.0982.

Consider G17C A35G, for which the self-cleavage turned out to be 0.0629.

With G17C A34C, the self-cleavage amounted to 0.0523.

C14U C25U: the self-cleavage is 0.909.

As for G17A U18C, the self-cleavage was found to be 0.221.

For C15A G42A, the self-cleavage stood at 0.156.

Consider G13C G45C, for which the self-cleavage stood at 0.138.

For the variant C20U C27G, the self-cleavage is 0.0816.

For the variant G28C C46G, the self-cleavage stood at 0.565.

For C15G U18C, the self-cleavage worked out at 0.048.

Consider C5U G47A, for which the self-cleavage was 0.727.

Take A4G U31G: the self-cleavage came out at 0.759.

For G17C C21U, the self-cleavage stood at 0.0868.

As to C9U G41C, the self-cleavage stood at 0.128.

Turning to A10C C15A, the self-cleavage was 0.493.

With A32C C46A, the self-cleavage is 0.837.

In the case of A1C A10U, the self-cleavage turned out to be 0.153.

Regarding C19U U31C, the self-cleavage was found to be 0.971.

Consider G28U A34C, for which the self-cleavage worked out at 0.205.

Take U31C G36U: the self-cleavage came out at 0.321.

In the case of A23C G28C, the self-cleavage came out at 0.0761.

As for A33C C46G, the self-cleavage is 0.751.

Take C27G G44U: the self-cleavage turned out to be 0.0884.

With A35G C46U, the self-cleavage was determined as 0.854.

Consider A30U G48U, for which the self-cleavage was determined as 1.09.

In the case of G7A G36U, the self-cleavage worked out at 0.108.

Take U18G G24A: the self-cleavage came to 0.0714.

On to A33G U37A, for which the self-cleavage was found to be 0.814.

For the variant C15U C26G, the self-cleavage was 0.0693.

As to A35U U37G, the self-cleavage was found to be 0.69.

C26A G42C: the self-cleavage is 0.131.

Take C3U G24U: the self-cleavage turned out to be 0.0933.

On to C26A A33C, for which the self-cleavage is 0.359.

Consider C20U G48A, for which the self-cleavage was 0.907.

For C21U G29A, the self-cleavage was 0.096.

Take C19U G44C: the self-cleavage is 0.608.

For G13U G42C, the self-cleavage was found to be 0.181.

Turning to A10U C21U, the self-cleavage came to 0.0991.

With U6A C21G, the self-cleavage was determined as 0.

For A22C G43A, the self-cleavage was 0.183.

Consider A22C G43C, for which the self-cleavage was determined as 0.145.

On to G16A G45C, for which the self-cleavage is 0.595.

In the case of U37G G43U, the self-cleavage was 0.173.

For the variant C3A G47U, the self-cleavage came to 0.229.

With C27U A32G, the self-cleavage was found to be 0.697.

In the case of U37G G41A, the self-cleavage came out at 0.209.

Turning to G7C G39A, the self-cleavage came to 0.0735.

In the case of C5G G39A, the self-cleavage came out at 0.197.

In the case of G39C A40C, the self-cleavage was determined as 0.114.

On to U12A G13A, for which the self-cleavage came out at 0.89.

As for C8A G28A, the self-cleavage came to 0.281.

Turning to G16A A33G, the self-cleavage stood at 0.892.

Consider G16C G43U, for which the self-cleavage was 0.11.

Consider G17U A35U, for which the self-cleavage is 0.372.

For C26U G48U, the self-cleavage is 0.32.

On to C5A G29A, for which the self-cleavage is 0.362.

On to G39C G44A, for which the self-cleavage came to 0.137.

With C9A G36A, the self-cleavage stood at 0.178.

With U12A G28C, the self-cleavage was found to be 1.02.

As to U18C C20A, the self-cleavage stood at 0.0953.

For the variant G41U G45C, the self-cleavage was 0.177.

As to G16A G29C, the self-cleavage amounted to 0.339.

Take C8G C20U: the self-cleavage came out at 0.0992.

In the case of G17C A30C, the self-cleavage came out at 0.101.

On to A11G C21G, for which the self-cleavage worked out at 0.0655.

Turning to C3G C46U, the self-cleavage amounted to 0.583.

U18A A30G: the self-cleavage came out at 0.606.

Take G36U G38U: the self-cleavage was 0.167.

Consider C9A C21G, for which the self-cleavage was found to be 0.164.

Consider G13C G41C, for which the self-cleavage worked out at 0.104.

On to A11U G13C, for which the self-cleavage turned out to be 0.592.

Turning to A2C A35C, the self-cleavage was 0.064.

With A4G G47U, the self-cleavage is 0.902.

G17U G39U: the self-cleavage is 0.108.

For G38U G39C, the self-cleavage was found to be 0.14.

Take U37G C46U: the self-cleavage was found to be 0.76.

On to G24U G41U, for which the self-cleavage came out at 0.0892.

Take C21A G47C: the self-cleavage was 0.0714.

For C3G C21U, the self-cleavage was found to be 0.0445.

In the case of G38A G44A, the self-cleavage worked out at 0.897.

Consider C19G C26A, for which the self-cleavage worked out at 0.0816.

As to A1U A33U, the self-cleavage amounted to 0.0603.

Consider A1U A33C, for which the self-cleavage is 0.0396.

Take U6A G7U: the self-cleavage was found to be 0.101.

Take G36A G43C: the self-cleavage is 0.152.

With C20A C25A, the self-cleavage was 0.0826.

With A1C C9A, the self-cleavage is 0.221.

With A2U C21U, the self-cleavage came to 0.0725.

In the case of C21A U37G, the self-cleavage is 0.0471.

Regarding U31A A40G, the self-cleavage turned out to be 0.0937.

Consider G13C G38C, for which the self-cleavage turned out to be 0.32.

For A10C C14A, the self-cleavage was determined as 1.05.

As for G13U G47A, the self-cleavage stood at 0.228.

On to U12C G45A, for which the self-cleavage came to 0.788.

On to G7C A11G, for which the self-cleavage was 0.106.

With G24C G38U, the self-cleavage came out at 0.0774.

In the case of A35G G39C, the self-cleavage is 0.178.

For G17A A32G, the self-cleavage stood at 0.6.

Turning to A4G G17U, the self-cleavage turned out to be 0.0875.

Regarding C9U A23G, the self-cleavage was 0.0717.

Take A2U C14A: the self-cleavage was determined as 0.531.

On to A11C G38A, for which the self-cleavage was found to be 0.768.

As for G7A G24A, the self-cleavage was 0.0655.

G38C G45U: the self-cleavage came out at 0.719.

Take C27U G43U: the self-cleavage turned out to be 0.219.

Take C19A G41U: the self-cleavage turned out to be 0.109.

U18G C20G: the self-cleavage was found to be 0.069.

For C3U A33G, the self-cleavage stood at 0.361.

G13A C21G: the self-cleavage worked out at 0.105.

For the variant C14A G24U, the self-cleavage was 0.146.

For G13C G42U, the self-cleavage was 0.112.

With C26U C27A, the self-cleavage is 0.102.

For the variant C14G G44U, the self-cleavage is 0.125.

C14G G44A: the self-cleavage came out at 0.174.
